Measured values published in the supplement of paper PMC10899765.

Legend:
Settings in all cases: 20 nM; 72 h
MCF10A [1] = assay: one-nucleolus phenotype percent effect (relative to siNT 0% and siNOL11 100%); higher = more cells with one nucleolus (ribosome biogenesis inhibition)
Description: (§1)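 After 72 h, cells were fixed and stained with Hoechst and anti-fibrillarin, and nucleoli per nucleus were counted with CellProfiler. Values are plate-adjusted percent effect for the one-nucleolus and 5+ nucleoli phenotypes, normalised to siNT (0%) and to the positive controls siNOL11 or siKIF11 (100%), as the mean of biological triplicates. Percent viability is the nuclei count relative to siNT.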

MCF10A [2] = assay: percent viability (nuclei count relative to siNT); higher = more viable cells
Description: as §1

MCF10A [3] = assay: 5+ nucleoli phenotype percent effect (relative to siNT 0% and siKIF11 100%); higher = more cells with five or more nucleoli
Description: as §1

Sequence	one-nucleolus phenotype percent effect (MCF10A [1])	percent viability (MCF10A [2])	5+ nucleoli phenotype percent effect (MCF10A [3])
ACAGGCACGACUGGUUUGGCA [hsa-miR-6715b-5p]	54.7%	14.8%	-27.8%
ACAGGCAGGAUUGGGGAA [hsa-miR-4514]	32.3%	18.4%	-12%
ACAGGCGGCUGUAGCAAUGGGGG [hsa-miR-3937]	31.6%	33.1%	-33.4%
ACAGGGAGGAGAUUGUA [hsa-miR-4441]	46.5%	18.5%	-15.6%
ACAGGGCCGCAGAUGGAGACU [hsa-miR-3918]	50.3%	8.55%	-31.2%
ACAGGUGAGGUUCUUGGGAGCC [hsa-miR-125a-3p]	5.16%	62.4%	-0.517%
ACAGUAGAGGGAGGAAUCGCAG [hsa-miR-936]	-2.74%	61.7%	14.1%
ACAGUAGUCUGCACAUUGGUUA [hsa-miR-199a-3p]	-13.9%	67.2%	18.7%
ACAGUAGUCUGCACAUUGGUUA [hsa-miR-199b-3p]	-19.3%	92%	36.1%
ACAGUCUGCUGAGGUUGGAGC [hsa-miR-622]	8.72%	86.2%	-4.39%
ACAUACUUCUUUAUAUGCCCAU [hsa-miR-1-5p]	11.9%	47%	-8.68%
ACAUCCUGCUCCACAGGGCAGAGG [hsa-miR-4793-5p]	-10.7%	52.3%	-0.984%
ACAUCGCCCCACCUUCCCCAG [hsa-miR-6785-3p]	-34.4%	102%	55.5%
ACAUUGCCAGGGAGUUU [hsa-miR-4317]	-2.43%	45.1%	-11%
ACAUUUUCCAGCCCAUUCA [hsa-miR-1250-3p]	53.7%	12.3%	-18.3%
ACCAAGUCUGCGUCAUCCUCUC [hsa-miR-3691-3p]	-5.26%	63.2%	0.0313%
ACCACUGACCGUUGACUGUACC [hsa-miR-181a-2-3p]	-14.1%	120%	12.6%
ACCACUGCACUCCAGCCUGAG [hsa-miR-1273g-3p]	5.96%	39.3%	-16.5%
ACCAGCCUGUGUCCACCUCCAG [hsa-miR-6849-3p]	13.6%	46%	-31%
ACCAGCGCGUUUUCAGUUUCAU [hsa-miR-4738-5p]	7.61%	51.5%	13.4%

Sequence	one-nucleolus phenotype percent effect (MCF10A [1])	percent viability (MCF10A [2])	5+ nucleoli phenotype percent effect (MCF10A [3])
ACCAGGAGGCUGAGGCCCCU [hsa-miR-665]	40.7%	30.2%	-29.1%
ACCAGGCAAGAAAUAUUGU [hsa-miR-4645-5p]	-4.87%	87.5%	5.96%
ACCAGGGCCAGCAGGGAAUGU [hsa-miR-6837-5p]	33.6%	19.9%	-15%
ACCAUCGACCGUUGAUUGUACC [hsa-miR-181a-3p]	-7.58%	87.3%	21.1%
ACCCAGGUUCCCUCUGGCCGCA [hsa-miR-4726-3p]	51.3%	23.9%	-34.6%
ACCCCACUCCUGGUACC [hsa-miR-4286]	-13.8%	48.7%	39.7%
ACCCCCGGGCAAAGACCUGCAGAU [hsa-miR-6840-5p]	5.12%	92%	-18.8%
ACCCCUCGUUUCUUCCCCCAG [hsa-miR-6795-3p]	-18.5%	101%	14.8%
ACCCCUGCCACUCACUGGCC [hsa-miR-6801-3p]	-4.08%	62%	1.82%
ACCCGCCCGUCUCCCCACAG [hsa-miR-7108-3p]	-20.7%	110%	28.2%
ACCCGUCCCGUUCGUCCCCGGA [hsa-miR-1247-5p]	-16.3%	116%	2.26%
ACCCUAUCAAUAUUGUCUCUGC [hsa-miR-454-5p]	-29.8%	81.2%	45.6%
ACCCUCGUCAGGUCCCCGGGG [hsa-miR-4655-3p]	-5.11%	56.9%	6.66%
ACCCUUGAGCCUGAUCCCUAGC [hsa-miR-4780]	-13.2%	99.8%	4%
ACCCUUUUUCUCUUUCCCAG [hsa-miR-6832-3p]	-12.4%	76.6%	38.2%
ACCGAAGACUGUGCGCUAAUCU [hsa-miR-4671-5p]	-20.7%	99.3%	14.8%
ACCGCCUGCCCAGUGA [hsa-miR-4485-5p]	-16.3%	70.4%	24.1%
ACCGUCUCUUCUGUUCCCCAG [hsa-miR-6827-3p]	16.9%	64.6%	-12.7%
ACCGUGCAAAGGUAGCAUA [hsa-miR-1973]	2.66%	119%	-30.8%
ACCGUGGCUUUCGAUUGUUACU [hsa-miR-132-5p]	-1.09%	68.8%	-7.44%

Sequence	one-nucleolus phenotype percent effect (MCF10A [1])	percent viability (MCF10A [2])	5+ nucleoli phenotype percent effect (MCF10A [3])
ACCUCCUGUGUGCAUGGAUUA [hsa-miR-660-3p]	16.9%	37.2%	-17.5%
ACCUGAAUUACCAAAAGCUUU [hsa-miR-3140-5p]	-18.7%	118%	26.3%
ACCUGAGGUUGUGCAUUUCUAA [hsa-miR-544b]	20.9%	45.3%	-17.6%
ACCUGCCAGCACCUCCCUGCAG [hsa-miR-4722-3p]	10.5%	53.9%	-32.2%
ACCUGGACCCAGCGUAGACAAAG [hsa-miR-3690]	-25.7%	79.1%	65%
ACCUGGCAGCAGGGAGCGUCGU [hsa-miR-8073]	28.9%	33.8%	-35.6%
ACCUGGCAUACAAUGUAGAUUU [hsa-miR-221-5p]	62.6%	36%	-26.8%
ACCUGGGUUGUCCCCUCUAG [hsa-miR-6742-3p]	-15.1%	90.1%	73.9%
ACCUGUCUGUGGAAAGGAGCUA [hsa-miR-4421]	15.9%	30.7%	-6.29%
ACCUUCCUCUCCAUGGGUCUUU [hsa-miR-3667-3p]	18.2%	32%	-21.3%
ACCUUCUUGUAUAAGCACUGUGCUAAA [hsa-miR-1248]	-15.4%	96.5%	33.1%
ACCUUGCAUCUGCAUCCCCAG [hsa-miR-6841-3p]	15%	28.6%	-39.3%
ACCUUGCCUUGCUGCCCGGGCC [hsa-miR-1915-5p]	39.7%	34.9%	-40.4%
ACGCCCUUCCCCCCCUUCUUCA [hsa-miR-1249]	-13.3%	85.3%	29.3%
ACGGAAUAUGUAUACGGAAUAUA [hsa-miR-3669]	-9.77%	95.9%	30.9%
ACGGAGACGACAAGACUGUGCUG [hsa-miR-5091]	3.3%	32.1%	-11.8%
ACGGAUGUUUGAGCAUGUGCUA [hsa-miR-105-3p]	-17%	117%	12.2%
ACGGCCCAGGCGGCAUUGGUG [hsa-miR-6075]	-5.35%	87.5%	5.39%
ACGGGCAGGGCAGUGCACCCUG [hsa-miR-7112-5p]	12.5%	31.2%	2.37%
